Source: paper PMC9522360, “Bidirectional sequestration between a bacterial hibernation factor and a glutamate metabolizing protein” (Proceedings of the National Academy of Sciences of the …, 2022)

Target: the molecule itself
Assay: SEC; size-exclusion chromatography of recombinant YwlG

B1: recombinant YwlG (natural protein, S. aureus)
chain: KDLTMLLDELKDMSFFNKGDICLIGCSTSEVIGEKIGTVGSMEVAETIFNALDVVSKETGVTFAFQGCEHINRAITIEKSQYNPLTMEEVSVVPDVHAGGSLATYAFQHMKDPIVVEHITVPCGIDIGQTLIGMHIKHVCVPVRTSVKQVGQAIVTIATSRPKKIGGERAKYQ
modifications: C69 was oxidized in the crystals
notes: YwlG of Staphylococcus aureus, 174 a.a., locus tag SAUSA300_2068; also called S. aureus YwlG; source: E. coli, purified (described in SI Appendix)
In the case of B1, the “stoichiometry N” value is reported as 6.
